Experiment: soluble fraction after stress (log2 fold change); higher = more stays soluble; pooled small domains, quantitative proteomics
Conditions: stress: pH 4
Summary of the method: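 Values are log2 fold changes, and higher ones mean more of the domain stayed soluble. Each fold change reflects the soluble amount of a domain after acid stress and is taken as a measure of aggregation propensity. The stress was pH 4, applied to pooled custom libraries of small protein domains analysed by high-throughput quantitative proteomics.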

Row | Sequence | soluble fraction (log2)
1 | HMREGNELLGKEGVTVSELRPAGIALIDGRRTDVVTDGEFVAVDQAVEVVEVSGNRVVVRRS | 0.0769
2 | HMGAAAQLLHAVVLRVPAEDTMKFVSETPELRRYLGAPLGPTAALVRPGQEQELAAALQAHGILVEFDE | 0.12
3 | HMTNYYTVTFKEGDTVLKEVSVHSGDGVPYAVAPKRDDIVGWSYNGNTYTTDLNTLKIKKEVTFTAVT | 0.183
4 | HMFENPRALLEMMISLGNEQGLINMARDIVSAGEFRRLELAAGGDRRKLARMLIDHLVEVAPRLP | -0.585
5 | HMNTLPASVQPKKGRLYAVIQTKENGKSKPVWRSLGLPEGSNKSKVNKAFREVVKQFEEEYAERLAR | 0.22
6 | HMTGETWAERSRALAAAGLIVMGQEAKNKIEDLPSLSPLIEAAAASETRLLTGQIIDELLAFV | -1.04
7 | HMLETHRRRQIILSLLRESGMLDVDEVAARLVVSPNTIRNDFNALAAEGLLRRIRGGATLAEP | -0.171
8 | HMVKTIINGEEKDFDAQDFQTFGDFLKKVIPEGQILKSLKINSKDVPIAFIDELKSATVDENITIEMELA | 0.315
9 | HMQKKEVTVPEVRSKSLKEAAQILSEQNLKYETEPVNVENPDMVVIDQFPKPGGKISEQSVIILYLR | 0.146
10 | HMQKTPFEIMTIYKDQILEMLGKDLTATEISIVLKKKGEKVHPREIRKFQLQHYEEVQDMRKKWRE | -0.632
11 | HMRLDPENFYIRAVTYYRNGDWQRALSQLDEAIKLGTAIEYPALQARIYLEQGMRDEFIAASEK | -1.42
12 | HMTKYREVLRMSAGGFSQRVIASTLSISRNTVASTLKRAREQNLDWEAVEQQRLSEKDIANLLFP | 0.293
13 | HMIMEVDYGTFMKMTEENAIGRVQMDSTEIIFTDKENTQVYSTGIMYDPDLTQRLYDAGAVFA | -1.58
14 | HMQNSPVFAASDIEDIRVGMTVEHQRFGQGRVMSIEGNGPNKKTTVLFEGIGEKQLLLQYAKLKIV | -0.242
15 | HMRYPLPYAFARSQQLLLEETDDGRYTLWMSSHPARSAVGEVSRKYGVQTFEVLADGPLAQRISAAYAQ | 0.0965
16 | HMAMTITKIEKTSQQKIYYFTDSGRVFKKMSDRSATIAVDDRVELEGGVLGSKFFVTANGSRVKVKEV | 0.0344
17 | HMNELPSVIIMKNGRTRPYELQEISKDEEWLNQTIREHGIEPKDIFIAEFWDGRTAFILNDGRIVK | -1.14
18 | HMSVEVPNLIGKTLDQVDIDLKSLDLSFVILDSARYNSSFKPLSVIDHQPISGAKVKVNRKIYLTINPS | -0.358
19 | HMRIVSGRESMLGRTVVVADWAGERGHVVVDGERWNAVASTPLAAGRRARIVGIDGLTLSVSPDDKP | 0.0452
20 | HMGKLQFREKLNGILELGKEKHRVLTMEDVEKYFEEDALSEEQMELVYDYLLSQKIAVTGYVKK | 0.414
21 | HMSQTELIIVEEEMDGERLDAFLAEQVEQLSRSAVKNLINEGQVLVNGAKQKASYHVREGDEISIEIPEPQ | -0.455
22 | HMKRDEYIAQLKKYLKRLPKKEYDSAIEYFTEYFDEAGPERELEVIQELGQPKEAAKEMLLQLLNE | -0.506
23 | HMISDAEWKIMNVLWEEQPRTMMQITKELQEETGWTKHTVMTYLKRMESKKIIHYVEGEKAKLYYS | -0.136
24 | HMEKIYLISDAAKQVNVEAHVLRYWEEELDIPAKRNELGHRYYTQEDIETFRKVKELKAQGIQLKGIKNIL | -1.07
25 | HMHLEKGEVVVPDLKGLTMRQVGELLGKLNLRYSFSGTGLAVKQFPESGQIVNQGDIIEVIF | 0.174
26 | HMGEENLKYPLLTDGSVKTTVLEAIDKDEKWLREELAKQGYDDLSKLFLVDYLGGQLVVTPY | -0.887

Row | Sequence | soluble fraction (log2)
27 | HMNVNSMIGKEGRVIEDIDNFNETGRIIVDGMEWTARAVNEQSITSGQKVVIREIQGVKAMVVPM | -0.299
28 | HMEEIQLILAKNLKSIREKEKLSLEKVSQLTGVSKTMIGQIERGDSSPTLTTIWKIANGLKVSFTSLINNP | 0.182
29 | HMFKYRELLDWAKNRFDDLEVSIAPKALALLVESIGTDLRLLDSEIQKLSMYKPLEMISTNDVEDLVA | -1.15
30 | HMPNQIKQIAVNTASVSDIATIPGISFDFAKEIWEFRILRQKIGSLSELQKIEGMTASKYALIELYLHI | -0.41
31 | HMIDNKIIRSLRQKRNMTLEELAKKANISVSYLSEIELGKKQPSLETINKLSQALNISREGLI | 0.22
32 | HMVAEPTYGRTTDVLNIRSGPSTDDERIGQLSRGAVVTILEEKDGWYRLQRGYISADYVTQISAEEASNS | -0.546
33 | HMYRYYSTLRPITPGAYPKPADNPAMLIHNFDNREYVGKIGREAWGYVEYNNPLTKEQIEAFDFVAE | -0.0236
34 | HMSTMKIVRVKSNLKIGQEITSKDIEVVEVGAYNMPSEVMKNSEDVIGKYASAEMIKGEYVLAAKISDTP | -0.902
35 | HMKNESLMLPRDIDYSRVHGLSNEAIQKLQDALPQSLGQASRIEGITPATLSLLLLYLKKNNKRI | 0.0199
36 | HMPREVKLPPDLLDALEASPEAKAFFLQLSYTHQKEYAQWIEEAKQEATRQRRLEKTVQMLLEGRRT | -0.0407
37 | HMEKYNIIVDNEDNFRLDKIIALNMKDLSRTMIQEMINRGLVSVNGKITKASYKTKLNDQIEIMIED | -0.171
38 | HMSFEITGDELILRFVKDKGGATTEQIRKHWEASNRGGKSDNNLTNLVKSGKLLRSKDPNGPGSLYTAS | -0.749
39 | HMLTEKEEEVMQILWDNGPLFVREILEFYPDPKPHYNTVSTVIRVLEEKNFASHKAYGNTYQYFP | 0.18
40 | HMGTSIMIIIVKPETKKERVNDLIHWIESQNLRTHLSTGDYSTIIGVIGDTSKLDSELIRGLDIVENVKRV | -1.24
41 | HMNSFGWESLIDKEGIADTDLHPSGWVRIDDRRIFVVSEGDFIDKGSGVTVLSVDGNRVVVRELI | -1.03
42 | HMNATQLSNTQKQIRTQLLERLSNNPLTVKQLADRMFVPIDTILKEITALIQEQKIIEDKGGKLQIN | 0.168
43 | HMDRMIPPYGLEVTYDKTTHIIFPSAVRYVDLGSPNLIAGKADGSENVIRVKATRKNFREETNMSVITE | -0.0773
44 | HMQEVKVRLKPDYLGEVLIKVISDKGELKAELFVSNSQVRSLLRAYAVEFQNQIRDQGYNFSEINVYR | -0.518
45 | HMPPLKYLKVKSYLEAVAVKAESAMRMPTVRELMNQFNVSLATVNRALSELENDGVIVRRQGSGIVAAG | ≥ 0.43
46 | HMSHFSERLKSLRQQSSITQAKLADDLNVTKSLISMYESGQRLPSFEMLETIADYFNVPLSSLV | -0.51
47 | HMLNPVEKLLLLSQLYIGRLKGSFVVKEKHHKSTILGEVRELSPEEITLKTDEGYRLIRVDDILTIQL | -0.704
48 | HMNDITVNVEDSKLIVTSNNPEKLPLYIMDIQGHILDKSEITAGTYSFPISDRGTYIVRIGENVYKVI | 0.186
49 | HMDLFREERRQAILDWLATAGRVSVAELSASFGVSEVTVRADLQALADRRLVVRTHGGAMMAG | -0.955
50 | HMTSISMDEKVVLGWHQVTTGAANSGMDKVVSNTSGLNVISPTWFKLSDNKGNYISIASKDYVDAAHKKGL | -0.317
51 | HMNPDMIAGVLKVPAAAGRLRSALFELGVVDDESYDDDGASRLTVTASQSDLERIVAQAGLVFEDVLVERR | -1.3
52 | HMALTARDLGLTHRQADVLHLVLQGKPVKLIARDLGLAEGTVKSHVSAVLRALNVTTRTQAIVAAGRLGLM | ≥ 0.43

Row | Sequence | soluble fraction (log2)
53 | HMVAEPVYGKVTEGPLNVRSAPSTDSEKVDSFSTGKVLTILETLDGWYKVEEGYVSADYVTIIDAAEAASS | -0.538
54 | HMLMKKTITHEIELLEFLKQIFPQSSTNKLRKMLSNGRIKINSEIVHKAKYKLQENDTFELLDNPT | -0.0208
55 | HMVESLTDRELQILSLAAKGYTNKAIAVQLGISDRTVQNHLANTFQKLNAESRTEAVMRAVSLGLISA | -0.422
56 | HMVENATPEEREALNDIAMEAMGMVKDGKPTSAREFVQSQNLDNDQKILLWSLLDAPTRSALKTAEK | 0.299
57 | HMGNTMIVILKHEARQEQIDRLKQFLLGMGLRIDESKGENSTILGLVGDTTRVDADLISSLDAVEAVRRV | -0.626
58 | HMLAKNDSGLNNHTFNAIRDALLEALADGPAEAKKLTENISFPSDKIITVIRFLADHDDRFSLEDGILSLT | -0.846
59 | HMKMSVEEVNLSPRTTNALINNDIKTMKDLVALTDTELRDLKGFGSKAYEEVKEKLSELGLSTQ | -0.546
60 | HMQKMPEMQILPNGKVKLPDFSGINMRKAAELLQYGKLRLQPYGSGTAYQQKPAAGTEVDEGTVVEIWF | 0.189
61 | HMNAPKKPLSAYFLFSQEERLKVKAENPDYSITEVAKELGKRWATLNPDIKTVYEQRYQDARRIYETEMNT | -0.102
62 | HMNIGSKLRYLIEEANITQRQLADALHISPSALNGYINQGKEPDYATLVRIADYFHTSTDYLLGHSNIR | -0.202
63 | HMAPREELIAIHEALDKLEREDPQVSQLVKLRYFVGMTMAEAADAMDLKKRAAEALWTYGKAWLHREIKKN | -0.576
64 | HMETYNLDVGDSAVLQYQNVSRISVGNPDVLDAIPLDKSQILLTGKATGGAALIVWDSKGMHMEKVMVHPA | -0.152
65 | HMIHKTDAINLGQRLLKSSLKEFDVSLKDIPNKTLMYILSEYKFNSLDDLYREIGLGNVIPKLVALRMAP | -0.436
66 | HMIEEIETQFLFDFGLIGHPNSAKIREKLSEALGIGYVNGKQLQKRLMMFGITKQQVVDVLTD | -2.3
67 | HMEDISQHAVKKLVQEMVMAEDPRDPLSDQQIAENLSRLGLKVARRTVAKYRAMLGIQPSNRRRK | 0.0963
68 | HMSDNHYLLEIFLADLKSDEKFIRELAIFQLHHHIESDKVRAELKAAAETESDPYLKGMIESLLSSTS | -1.2
69 | HMVTEIDYGAFIKMTEEGNIGEVKIEDNQIVFTDKENKAIYKTGIMPDSDLTQRLYDSGAVFA | -1.27
70 | HMGPGSYVVNVKPYAYVSINGRDYGRTPVGPIRLDPGTYKVVFTHEHRPSFSRTIVVEAGRETFETFPYPG | -0.107
71 | HMERYSVQVGSFRNMRYAERLKQELQGEDFPAYIEKSGEFNRVRVGKGLTLEEATQLEQVLRKSGYQTVIV | 0.0226
72 | HMGQISDEETLKTVASRIIDANPDEARKYRSGKTGLLGFFVGQVMKATQGEANPKLASRIVKELLE | ≥ 0.43
73 | HMSYTDIILKMSNVNFLTKVNFTNSEKNKNIKNGNFLIKKGKNRITAAFDYKDNELVISKSNLRNTFL | -1.22
74 | HMTYLIKFDENGRRSDTYVAEEKTQEQVTELLEKGFVLITEEDYQLLVGNVDGKEYIRNADGTYSEYT | -0.894
75 | HMASEVEVPNVYGMPSSLAERELSAVGLLADYRSRTGTGQQPGTVVHVKPDAGTVVSRGSTVVLFIA | 0.138
76 | HMLSRKEVFTVSQKDIEKNPIGAADKFFDGHVGIHKLLVVDEEDRLRGLFTLSDIERINDEQ | -0.0114
